Where a chain is given by its changes, count along the chain named. Values belong to the binder of their own block, whether it stands above or below them. Numbered stars: 1 amine (or outer) side, 2 acyl side, 3 side chain; on linkers, the order of the positions; unused ones are H or OH. Square brackets hold non-standard residues; d marks the D form. Ends that are not written are not given here. * marks the point of attachment. Biotin = O=C1N[C@H]2[C@H](CS[C@H]2CCCCC(=O)*)N1; Ttds = O=C(CCC(=O)[*:2])NCCCOCCOCCOCCCN[*:1]
How the values were obtained:
[1] = biological target: T1, RPSFSLVEDTTLEPEG-Ttds-Lys(Biotin) (human); assay: peptide ELISA, IgG titration, anti-mouse IgG (Fc specific) POD detection
T1 construct: Synthesized by JPT Peptide Technology
T1 peptide: RPSFSLVEDTTLEPEG[Ttds]K(Biotin)

[2] = biological target: T2, recombinant human FGFR2 (Met 1-Glu 377) with C-terminal polyhistidine tag (human, UniProt P21802 22-377); assay: protein binding ELISA; against TPP-1403
T2 construct: The range is that of the expressed DNA and begins at Met 1; also called His-tagged FGFR2; recombinant human FGFR2-IIIc molecule
T2 sequence (P21802 22-377 limits assumed): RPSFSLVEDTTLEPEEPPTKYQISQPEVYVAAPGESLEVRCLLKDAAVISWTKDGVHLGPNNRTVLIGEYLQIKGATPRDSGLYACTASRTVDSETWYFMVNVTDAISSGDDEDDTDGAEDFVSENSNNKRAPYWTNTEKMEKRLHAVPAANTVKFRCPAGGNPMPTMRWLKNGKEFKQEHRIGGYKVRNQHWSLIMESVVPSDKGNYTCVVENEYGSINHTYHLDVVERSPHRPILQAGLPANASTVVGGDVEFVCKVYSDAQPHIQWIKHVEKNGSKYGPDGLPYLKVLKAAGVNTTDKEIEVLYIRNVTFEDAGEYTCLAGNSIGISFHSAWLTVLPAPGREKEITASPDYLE
From the text: (§1) Two different types of ELISA were used to determine the binding improvement of mutated variants: a) Peptide Binding ELISA: a synthetic peptide comprising the amino acid sequence of the epitope linked C-terminally to a biotinylated lysine […]-Ttds-Lys(Biotin) (peptide sequence derived from SEQ ID NO:63, synthesized by JPT Peptide Technology GmbH, Berlin, Germany), and b) Recombinant Protein Binding ELISA: recombinant human FGFR2 (DNA sequence of human FGFR2 (NP 000132.3) Met 1-Glu 377, fused with a polyhistidine tag at the C-terminus; #10824-1-1081-1, Sin θ Biological Inc., Beijing, China).
(§2) Briefly, in both ELISA formats MTP plates (384 well Maxisorp, Nunc) were coated with 20 μl, anti-human IgG Fc specific (#12136; sigma) at 2.2 μg/ml for 2.5 h at 37° C. in coating buffer (#121125 Candor Bioscience GmbH). […] Anti-FGFR2 variants were immobilized in concentrations of 0.035 μg/ml (peptide based assay) or 0.2 μg/ml (recombinant human FGFR2 protein based assay) in 10% Smart Block in PBST depending on the format and variants to be analyzed by incubation of 20 μl for one hour at 20-22° C. After one washing step using 50 μl PBST, 20 μl quadruplets of the antigen dilution series in 10% SmartBlock in PBST with a maximum concentration of 100 nM were added and incubated for 1 h at 20-22° C. and the washing step was repeated 3 times. For the detection of the biotinylated epitope peptide 20 μl of streptavidine/POD conjugate (# S5512, Sigma) in a 1:1000 dilution in 10% SmartBlock in PBST were applied for one hour at 20-22° C. For the detection of the recombinant FGFR2 protein 20 μl of anti-His/HRP conjugate (#71840, novagen) in a 1:10000 dilution in 10% SmartBlock in PBST were applied for one hour at 20-22° C. After 3 washing steps 20 μl of 10 μM amplex red substrate (# A12222, Invitrogen) in 50 mM Sodium hydrogen phosphate, pH 7.6, were added and the fluorescence signal was detected using a common fluorescence reader, e.g. Tecan M1000. EC50 values were evaluated by fitting the data (Sigmoida) dose-response, variable slope, bottom set to background; GraphPad Prism software).

[3] = biological target: T2, recombinant human FGFR2 (Met 1-Glu 377) …; assay: protein binding ELISA, antibody captured by anti-human IgG Fc, FGFR2-His titrated
From the text: as §1, §2

[4] = biological target: T1, RPSFSLVEDTTLEPEG-Ttds-Lys(Biotin); assay: peptide binding ELISA, antibody captured by anti-human IgG Fc, biotinylated peptide titrated; against TPP-1403
From the text: as §1
(§3) Briefly, in both ELISA formats MTP plates (384 well Maxisorp, Nunc) were coated with 20 μl, anti-human IgG Fc specific (#12136; sigma) at 2.2 μg/ml for 2.5 h at 37° C. in coating buffer (#121125 Candor Bioscience GmbH). […] Anti-FGFR2 variants were immobilized in concentrations of 0.035 μg/ml (peptide based assay) or 0.2 μg/ml (recombinant human FGFR2 protein based assay) in 10% Smart Block in PBST depending on the format and variants to be analyzed by incubation of 20 μl for one hour at 20-22° C. […] After 3 washing steps 20 μl of 10 μM amplex red substrate (# A12222, Invitrogen) in 50 mM Sodium hydrogen phosphate, pH 7.6, were added and the fluorescence signal was detected using a common fluorescence reader, e.g. Tecan M1000. […]

[5] = biological target: T1, RPSFSLVEDTTLEPEG-Ttds-Lys(Biotin); assay: peptide binding ELISA, antibody captured by anti-human IgG Fc, biotinylated peptide titrated
From the text: as §1, §2

[6] = biological target: T3, mutated human FGFR2 on MFE-296 cells (human, UniProt P21802 22-821); assay: FACS, 5 ug/ml, MFE296 cells
T3 construct: whole, on cells
T3 sequence (P21802 other isoform, or with tags, fused parts or gaps limits assumed, change not shown): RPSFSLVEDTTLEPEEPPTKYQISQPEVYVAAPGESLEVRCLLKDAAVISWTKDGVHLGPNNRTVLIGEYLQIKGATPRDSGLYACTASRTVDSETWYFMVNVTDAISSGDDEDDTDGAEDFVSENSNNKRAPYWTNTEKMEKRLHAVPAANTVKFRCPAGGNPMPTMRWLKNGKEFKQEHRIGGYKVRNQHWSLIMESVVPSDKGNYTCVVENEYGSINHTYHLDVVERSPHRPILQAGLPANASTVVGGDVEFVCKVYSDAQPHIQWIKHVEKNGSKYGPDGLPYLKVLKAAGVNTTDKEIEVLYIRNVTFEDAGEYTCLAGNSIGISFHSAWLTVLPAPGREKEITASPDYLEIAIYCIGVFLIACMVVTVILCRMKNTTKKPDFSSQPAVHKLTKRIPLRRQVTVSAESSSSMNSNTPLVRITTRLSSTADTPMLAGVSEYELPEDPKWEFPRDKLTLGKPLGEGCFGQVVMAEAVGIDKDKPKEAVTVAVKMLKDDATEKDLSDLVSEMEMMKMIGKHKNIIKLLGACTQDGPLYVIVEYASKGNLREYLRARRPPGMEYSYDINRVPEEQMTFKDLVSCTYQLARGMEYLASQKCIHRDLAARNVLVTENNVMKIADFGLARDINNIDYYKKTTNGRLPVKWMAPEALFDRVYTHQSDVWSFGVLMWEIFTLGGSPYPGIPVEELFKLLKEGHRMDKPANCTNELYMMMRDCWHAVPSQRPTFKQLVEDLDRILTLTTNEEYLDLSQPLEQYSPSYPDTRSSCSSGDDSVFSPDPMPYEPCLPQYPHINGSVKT
Procedure: (§4) To determine the binding characteristics of the anti-FGFR2 antibodies on mouse, rat and human cancer cell lines, binding was tested by flow cytometry to a panel of cell lines. Adherent cells were washed twice with PBS (without Ca and Mg) and detached by enzyme-free PBS based cell dissociation buffer (Invitrogen). Cells were suspended at approximately 10⁵ cells/well in FACS buffer (PBS without Ca/Mg, Biochrom containing 3% FCS, Biochrom). Cells were centrifuged (250 g, 5 min, 4° C.) and supernatant discarded. Cell were resuspended in dilutions of the antibodies of interest (5 μg/ml in 80 μl if not indicated otherwise) in FACS buffer, and incubated on ice for 1 h. […] After incubation for 1 h on ice cells were again washed with cold FACS buffer, resuspended in 100 μl FACS buffer and analyzed by flow cytometry using a FACS-Array (BD Biosciences). Results are calculated as Geo Mean of the detection by the antibody of interest subtracted by background fluorescence as measured by detection with the secondary antibody alone.

[7] = biological target: T4, rat FGFR2 on RUCA cells (rat, UniProt F1LNW0 41-840); assay: FACS, 5 ug/ml, RUCA cells
T4 construct: whole, on cells
Procedure: as §4

[8] = biological target: T5, mutated human FGFR2 on AN3-CA cells (human, UniProt P21802 22-821); assay: FACS, 5 ug/ml, AN3CA cells
T5 construct: whole, on cells; also called AN3-CA (DSMZ-ACC 267)
T5 sequence (P21802 other isoform, or with tags, fused parts or gaps limits assumed, change not shown): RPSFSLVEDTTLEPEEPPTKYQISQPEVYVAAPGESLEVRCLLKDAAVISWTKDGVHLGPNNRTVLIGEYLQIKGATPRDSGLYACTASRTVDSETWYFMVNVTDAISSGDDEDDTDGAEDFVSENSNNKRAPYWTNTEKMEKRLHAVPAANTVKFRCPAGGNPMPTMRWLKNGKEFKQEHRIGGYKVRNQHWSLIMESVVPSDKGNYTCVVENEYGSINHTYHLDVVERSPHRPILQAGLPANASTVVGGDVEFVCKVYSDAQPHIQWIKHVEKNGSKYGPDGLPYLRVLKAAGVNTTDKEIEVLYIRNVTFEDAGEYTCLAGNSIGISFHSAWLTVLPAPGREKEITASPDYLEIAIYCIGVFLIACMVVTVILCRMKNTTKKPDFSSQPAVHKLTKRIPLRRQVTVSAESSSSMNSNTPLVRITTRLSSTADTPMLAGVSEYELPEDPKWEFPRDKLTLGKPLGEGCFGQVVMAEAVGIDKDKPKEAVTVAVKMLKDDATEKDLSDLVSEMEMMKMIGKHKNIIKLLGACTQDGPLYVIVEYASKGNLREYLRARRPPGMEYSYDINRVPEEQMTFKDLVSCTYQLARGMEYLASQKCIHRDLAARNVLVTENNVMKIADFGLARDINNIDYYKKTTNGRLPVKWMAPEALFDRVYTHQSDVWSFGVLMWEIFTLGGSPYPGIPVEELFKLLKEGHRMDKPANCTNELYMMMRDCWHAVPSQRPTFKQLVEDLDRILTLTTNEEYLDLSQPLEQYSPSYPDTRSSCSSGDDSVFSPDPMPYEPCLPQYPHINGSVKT
Procedure: as §4

[9] = biological target: T1, RPSFSLVEDTTLEPEG-Ttds-Lys(Biotin); assay: peptide binding ELISA; against TPP-1415
From the text: as §1, §3

[10] = biological target: T2, recombinant human FGFR2 (Met 1-Glu 377) …; assay: protein binding ELISA; against TPP-1415
From the text: as §1, §2

B1: M048-D01-mIgG2a (antibody)
heavy: EVQLLESGGGLVQPGGSLRLSCAASGFTFSSYAMSWVRQAPGKGLEWVSAISGSGTSTYYADSVKGRFTISRDNSKNTLYLQMNSLRAEDTAVYYCARVRYNWNHGDWFDPWGQGTLVTVSSAKTTAPSVYPLAPVCGDTTGSSVTLGCLVKGYFPEPVTLTWNSGSLSSGVHTFPAVLQSDLYTLSSSVTVTSSTWPSQSITCNVAHPASSTKVDKKIEPRGPTIKPCPPCKCPAPNLLGGPSVFIFPPKIKDVLMISLSPIVTCVVVDVSEDDPDVQISWFVNNVEVHTAQTQTHREDYNSTLRVVSALPIQHQDWMSGKEFKCKVNNKDLPAPIERTISKPKGSVRAPQVYVLPPPEEEMTKKQVTLTCMVTDFMPEDIYVEWTNNGKTELNYKNTEPVLDSDGSYFMYSKLRVEKKNWVERNSYSCSVVHEGLHNHHTTKSFSRTPGK
VL: QSVLTQPPSASGTPGQRVTISCSGSSSNIGNNYVSWYQQLPGTAPKLLIYENYNRPAGVPDRFSGSKSGTSASLAISGLRSEDEADYYCSSWDDSLNYWVFGGGTKLTVL
notes: Murine IgG2a format of M048-D01
- EC50 [1]: ≤ 1 nM

B3: M021-H02-hIgG1 (antibody, V domains shown)
VH: EVQLLESGGGLVQPGGSLRLSCAASGFTFSNYGIHWVRQAPGKGLEWVAVISYDGSNKYYADSVKGRFTISRDNSKNTLYLQMNSLRAEDTAMYYCARDSSSAEDYWGQGTLVTVSS
VL: QSVLTQPPSASGTPGQRVTISCSGSSSNTGSNTVNWYQQLPGTAPKLLIYRNNQRPSGVPDRFSGSKSGTSASLAISGLRSEDEADYYCETWDSNTRGVVFGGGTKLTVL
notes: Human IgG1; also called M021-1-102-hIgG1; M021-1-102
- Geo Mean minus Geo Mean of secondary antibody alone (FACS) [6]: 100 to 1000 geomean
- Geo Mean minus Geo Mean of secondary antibody alone (FACS) [7]: 100 to 1000 geomean

B5: M017-B02-hIgG1 (antibody, V domains shown)
VH: EVQLLESGGGLVQPGGSLRLSCAASGFTFRTSGMHWVRQAPGKGLEWVAVISYDGSNKYYADSVKGRFTISRDNSKNTLYLQMNSLRAEDTAVYYCARESPGYDFEYWGQGTLVTVSS
VL: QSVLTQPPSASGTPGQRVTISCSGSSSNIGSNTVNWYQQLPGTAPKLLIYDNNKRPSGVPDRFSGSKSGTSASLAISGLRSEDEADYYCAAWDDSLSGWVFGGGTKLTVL
notes: Human IgG1
- Geo Mean minus Geo Mean of secondary antibody alone (FACS) [6]: 1000 to 10000 geomean
- Geo Mean minus Geo Mean of secondary antibody alone (FACS) [7]: 100 to 1000 geomean
- Geo Mean minus Geo Mean of secondary antibody alone (FACS) [8]: 100 to 1000 geomean

Further lines, results first:

- fold EC50 reduction [2]: 40 fold
- EC50 [3]: 0.2 nM
- fold EC50 reduction [4]: > 2300 fold
- EC50 [5]: 0.004 nM
B2: TPP-1397 (antibody, human IgG1, lambda, V domains shown)
VH: EVQLLESGGGLVQPGGSLRLSCAASGFTFSSYAMSWVRQAPGKGLEWVSAISKSGGSTFYADSVKGRFTISRDNSKNTLYLQMNSLRAEDTAVYYCARVRYIWGEGDWFDPWGQGTLVTVSS
VL: AQSVLTQPPSASGTPGQRVTISCSGSSSNIGENYVSWYQQLPGTAPKLLIYENYKRSSGVPDRFSGSKSGTSASLAISGLRSEDEADYYCAAWDDSLNSWVFGGGTKLTVLG
notes: Matured variant of M048-D01

- Geo Mean minus Geo Mean of secondary antibody alone (FACS) [6]: 100 to 1000 geomean
- Geo Mean minus Geo Mean of secondary antibody alone (FACS) [7]: 100 to 1000 geomean
B4: M054-D03-hIgG1 (antibody, V domains shown)
VH: B5 VH with R30S, T31N, S32Y, R98K, S100T, P101N, G102D, Y103V, D104P, E106D
VL: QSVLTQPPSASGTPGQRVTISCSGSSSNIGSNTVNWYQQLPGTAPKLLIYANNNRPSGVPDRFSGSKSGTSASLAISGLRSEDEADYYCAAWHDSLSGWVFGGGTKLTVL
notes: Human IgG1

- EC50 [3]: 0.29 nM
- fold EC50 reduction [9]: > 4 fold
- fold signal [9]: 10 fold
- fold EC50 reduction [10]: 27 fold
- EC50 [5]: 2.5 nM
B6: TPP-1408 (antibody, human IgG1, lambda, V domains shown)
VH: B5 VH with R30S, T31H, S100Q, G102V
VL: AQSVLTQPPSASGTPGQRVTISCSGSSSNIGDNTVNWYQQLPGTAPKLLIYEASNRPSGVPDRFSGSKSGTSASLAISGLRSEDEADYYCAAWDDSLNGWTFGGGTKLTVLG
notes: Matured variant of M047-D08

- Geo Mean minus Geo Mean of secondary antibody alone (FACS) [6]: 1000 to 10000 geomean
- Geo Mean minus Geo Mean of secondary antibody alone (FACS) [8]: 100 to 1000 geomean
B7: M054-A05-hIgG1 (antibody, V domains shown)
VH: EVQLLESGGGLVQPGGSLRLSCAASGFTFSNYGMYWVRQAPGKGLEWVAVISYDGTNKYYVDSVKGRFTISRDNSKNTLYLQMNSLRAEDTAVYYCAKDLPKWGGFDSWGQGTLVTVSS
VL: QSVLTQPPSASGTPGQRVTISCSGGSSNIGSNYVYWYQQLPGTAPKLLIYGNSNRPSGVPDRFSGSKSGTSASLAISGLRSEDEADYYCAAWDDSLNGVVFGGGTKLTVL
notes: Human IgG1

— patent publication US20140322220A1 (Bayer, published 2014)
